The series in a line: yeast display, Sf9 membrane polyspecificity reagent, FACS + sequencing; frameworks hold sequencing errors. Put shortly:
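Sorting gates, low and high (top ~1%), were placed on anti-HA fluorescence to track expression and on streptavidin fluorescence to track reagent binding. A clone's polyreactivity label is taken from the gate it came out of. The reagent was 10% biotinylated, detergent-solubilized Sf9 membrane, applied for 1 hour at 4 °C to galactose-induced yeast display cells.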
Take “QVQLVESGGGLVQAGGSLRLICAASGLTFHRYAMGWYRQAPGKERELVAAINYSGGRTYYADSVKGRFTISRDNAKNTVYLQMNSLKPEDTAVYYCAAPRASGYYWGQGTQVTVSS”: the “polyreactivity (PSR sort gate)” value is given as “high polyreactivity”.

Take “QVQLVESGGGLVQAGGSLRLICAASGLTFKRYAMGWYRQAPGKEREFVAAISAGGASTHYADSVKGRFTISRDNAKNTVYLQMNSLKPEDTAVYYCATDYRSFRPSFGYWGQGTQVTVSS”: the “polyreactivity (PSR sort gate)” value was “low polyreactivity”.

Consider “QVQLVESGGGLVQAGGSLRLICAASGLTFKSNTMGWYRQAPGKERELVAAISRSGGRTYYADSVKGRFTLSRDNAKNTVYLQMNSLKPEDTAVYYCAALYHTYLTWREDYWGQGTQVTVSS”, for which the “polyreactivity (PSR sort gate)” value is “high polyreactivity”.

As to “QVQLVESGGGLVQAGGSLRLICAASGNIFTQYGMGWYRQAPGKERELVAAISRRGGSTYYADSVKGRFTISRDNAKNTVYLQMNSLKPEDTAVYYCARRTNRPPWGFEYWGQGTQVTVSS”, the “polyreactivity (PSR sort gate)” value is “high polyreactivity”.

Take “QVQLVESGGGLVQAGGSLRLICAASGNTFSAYGMGYYRQAAGKERELVAGITNGGSTNYADSVKGRFTISRDNAMNTVYLQMNSLKPEDTAVYYCATVQYVEPPTPVDYWGQGTQVTVSS”: the “polyreactivity (PSR sort gate)” value is listed as “low polyreactivity”.

On to “QVQLVESGGGLVQAGGSLRLICAASGNTFYYYAMGWYRQAPGKERELVASITSTARTYYADSVKGRFTISRDNAKNTGYLQMNSLKPEDTAVYYCNAKEHYATRSDSCGQGTQVTVSS”, for which the “polyreactivity (PSR sort gate)” value is recorded as “high polyreactivity”.

In the case of “QVQLVESGGGLVQAGGSLRLICAASGPTFTKANAMVWYRQAPGKERELVAAITDGGSTYADSVKGRFTNSRDNSKNTVYLQMNCLKPEDTAVYYCAKENEVFYDASYDYWGQGTQVTVSS”, the “polyreactivity (PSR sort gate)” value is listed as “low polyreactivity”.

As for “QVQLVESGGGLVQAGGSLRLICAASGRIFCRNTMGWYRQAPGKERELVAAINYSGGRTYYADSVKGRFTISRDNAKNTVYLLMNSLKPEDTAVYYCAATPPVATNGRYYYWGQGTQVTVSS”, the “polyreactivity (PSR sort gate)” value is given as “low polyreactivity”.

As to “QVQLVESGGGLVQAGGSLRLICAASGRIFGDNAMGWYRQAPGKERELVAGIRWRADRTYYADSVKGRFTISRDNAKNTFYLQMNSLKPEDTAVYYCAARGGGYYDFDYWGQGTQVTVSS”, the “polyreactivity (PSR sort gate)” value is listed as “low polyreactivity”.

As for “QVQLVESGGGLVQAGGSLRLICAASGRIFGVYAKGWYRQAPGKERDFVATNSNRGGGSTYYADSVKGRFTISRDNAMNTVYLQMNSLKPEDTSVYYCNVRARYPFGYDYWGQGTQVTVSS”, the “polyreactivity (PSR sort gate)” value is listed as “high polyreactivity”.

On to “QVQLVESGGGLVQAGGSLRLICAASGRIFGYNAMGWSRQAPGKERELVAAIRGSGSTYYADSVKGRFTISRDNAKNTVYLQMNSLKPEDTAVYYCAARTSSTKYYYWGQGTQVTVSS”, for which the “polyreactivity (PSR sort gate)” value is on record as “high polyreactivity”.

On to “QVQLVESGGGLVQAGGSLRLICAASGRIFHPYAMAWYRQAPGKERELVATISWSGGSTTYEDSVKGRFTISRDNAKNTVYLQMNSLKPEDTAVYYCNADYWWSYVRFVYWGQGTQVTVSS”, for which the “polyreactivity (PSR sort gate)” value is on record as “low polyreactivity”.

Turning to “QVQLVESGGGLVQAGGSLRLICAASGRIFKNNAMGWYRQAPGKEREFVAAISSIGGRTYYADSVKGRFTISRDNAKNTVYLQMISLKPEDTAVYYCAARGYTGGLWYDYWGQGTQVTVSS”, the “polyreactivity (PSR sort gate)” value is “high polyreactivity”.

Regarding “QVQLVESGGGLVQAGGSLRLICAASGRIFLRNDMGWYRQAPGKERELVAGISSDGSTYYADSVNGRFTISRDNAKNTVYLQMNSLKPEDTAVYYCAAERWGNPTDYQFWRPYDYWGQGTQVTVSS”, the “polyreactivity (PSR sort gate)” value is “low polyreactivity”.

With “QVQLVESGGGLVQAGGSLRLICAASGRIFRGNAMGWYRQAPGKEMELVDTITIRGGSTYYADSVKGRFTISRDNAKNTVYLKMNSLIPEDTAVYYCNTRTYGYLTQKYDYWGQGTQVTVSS”, the “polyreactivity (PSR sort gate)” value was “high polyreactivity”.

As to “QVQLVESGGGLVQAGGSLRLICAASGRIFRYYAMGWYRQAPGKERELVASISWRGGSTYYADSVKGRFTISRDNAKNTVYLQMNSLKPDDTAVYYCNAAPGAFYRWWGFGSDYWGQGTQVTVSS”, the “polyreactivity (PSR sort gate)” value is “high polyreactivity”.

In the case of “QVQLVESGGGLVQAGGSLRLICAASGRIFYINAMGWYRQPPGKERELVAAITGGDGSTTYADSVKGRFTISRDNAKNTVYLQMNSLKPEDTAVYYCYADTARKYAESQFDHWGQGTQVTVSS”, the “polyreactivity (PSR sort gate)” value is “low polyreactivity”.

Consider “QVQLVESGGGLVQAGGSLRLICAASGRIFYNYVMGCYRQAPGKERDLVAAISVSSGNTYYADSVKGRFTISRDYAKITVYLQMNSLKPEDTAVYYCARLRTVGGYSKYDYWGQGTQVTVSS”, for which the “polyreactivity (PSR sort gate)” value is given as “low polyreactivity”.

For “QVQLVESGGGLVQAGGSLRLICAASGRIIARNAMGWYRQAPGKERELVAAITARGARTYYADSVKGRFTISRDNAKNTVYLQMNSLKPEDTAVYYCAVVQGNVYYTGDDYWGQGTQVTVSS”, the “polyreactivity (PSR sort gate)” value is “high polyreactivity”.

Take “QVQLVESGGGLVQAGGSLRLICAASGRILSYYAMGWYRQAPGKERELVATINSGGSTNYADSVKGRFTISRDNAKNTVYLEMNSLKPEDTAVYYCAASPVWWYEYWGQGTQVNVSS”: the “polyreactivity (PSR sort gate)” value is on record as “low polyreactivity”.

Consider “QVQLVESGGGLVQAGGSLRLICAASGRILYGNVMGWYRQAPGKERELVAAIDSSGATTYYADSVKGRFTISRDNAKNTVYLQMNSLKPEDTAVYYCAAEVTSFSFGGDATEYYWGQGTQVTVSS”, for which the “polyreactivity (PSR sort gate)” value is reported as “low polyreactivity”.

For “QVQLVESGGGLVQAGGSLRLICAASGRISAFNAMGWYRQAPGKERELVAAINVSGGNTYYADSVKGRFTISRDNAKNTVYLQMNSMKPEDTAVYYCAAERRRWGLDYYYWGQGTQVTVSS”, the “polyreactivity (PSR sort gate)” value is listed as “high polyreactivity”.

Consider “QVQLVESGGGLVQAGGSLRLICAASGRIYYGYAMGWYRQAPGKERELVSTITWSGGSTYYADSVKGRFTISRDNAKNTVYLQMNSLKPEDTAVYYCAAYSPYIYQAYRYDYWGQGTQVTVSS”, for which the “polyreactivity (PSR sort gate)” value is listed as “low polyreactivity”.

For the sequence “QVQLVESGGGLVQAGGSLRLICAASGRTFAYNAMGWYRQAPGKERELVAAISYRGTTTYYADSVKGRFTISRDNAKNTVYLQMNSLKPEDTAVYYCNKVGTRFSAYSSGFVLSEYYYWGQGTQVTVSS”, the “polyreactivity (PSR sort gate)” value is “high polyreactivity”.

In the case of “QVQLVESGGGLVQAGGSLRLICAASGRTFAYYAMGWYIQAPGKERELVAAISSSGGRTYYADSVKGRFTISRDNAKNTVYLQMNSLKPEDTAVYFCAAYTTVKKNGYWGQGTQVTVSS”, the “polyreactivity (PSR sort gate)” value was “high polyreactivity”.

“QVQLVESGGGLVQAGGSLRLICAASGRTFDHNAMGWYRQAPGKERELVAAITWSGGITDYADSVKRPFTISRDNAKNTVYLQMNSLKPEDTAVWGQGTQVTVSS”: the “polyreactivity (PSR sort gate)” value is recorded as “low polyreactivity”.

Consider “QVQLVESGGGLVQAGGSLRLICAASGRTFDRYDMGWYRPAPGKERALVATISSSGGSTYYADSVKGRFTISRDNAKNTVYLQMNSLKPEDTAVYYCAADPSGYYWGQGSQVTVSS”, for which the “polyreactivity (PSR sort gate)” value was “low polyreactivity”.

As for “QVQLVESGGGLVQAGGSLRLICAASGRTFGVYAMGWYRQAPGKERELVADITSGGGTYYADSVKGRFTILRDNAKNTFYLQMNSLKPEDTAVYYFAARKWYYAYDYWGQGTQVTVSS”, the “polyreactivity (PSR sort gate)” value is recorded as “high polyreactivity”.

“QVQLVESGGGLVQAGGSLRLICAASGRTFKFNAMGWYRQAPGKERELVARITGGRTNYADSVKGRFTISRDNAKNTVYLQLNSLKPEDTAVYYCAADRYYGYSQDRRRYGYWGQGTQVTVSS”: the “polyreactivity (PSR sort gate)” value is on record as “high polyreactivity”.

“QVQLVESGGGLVQAGGSLRLICAASGRTFKYYAMGWYRPAPGKERELVATISFRGGSTYYADSVKGRFTISRDNAKNTVYLQMNSLKPEDTSVYYCAATTPYYTPRRRNDYWGQGTQVTVSS”: the “polyreactivity (PSR sort gate)” value is “high polyreactivity”.

Values taken from the nanobody polyreactivity screen of Harvey et al. (2022).
